Test: soluble on expression in E. coli; label from the status in PepcDB or PDB records

Sequence	soluble on expression in E. coli
MGSDKIHHHHHHMVQAIDNTIATNFLTDAVVERHNFSQLNKTRIRFRIQLKKSTKSAAPKWADVLQAEVSEIESDLVKVTNSEVGLRGIKVFKKLDEAAAQLRQEIASVQEWMSADTGDWVCPIDLAPLVWNQLINIRDNIAPGLRNQLKADYEAGLVDYQERIDQFLSLNTWELAQDKQESVKANLLRAFPTLTDLEDYLQVVIGRPVIIPALSEQLNQQQAECLDQITKFIQQYDQNLEQRLRESALAGGEQLAAQLLEELADWEPGRKPVQFKKKMERHLMKVQVLLANADSEAGSSLEAMMTHLDSIVNDPAIESKNLGSDTRSQLQQKMQEIRIKLLDEQRNLQSLATEDVGLSKATVMSFKFR	not soluble
MGSDKIHHHHHHMVRPQRNKKRFILILNGVWNLEVTSKDRPIAVPGSWNEQYQDLCYEEGPFTYKTTFYVPKELSQKHIRLYFAAVNTDCEVFLNGEKVGENHIEYLPFEVDVTGKVKSGENELRVVVENRLKVGGFPSKVPDSGTHTVGFFGSFPPANFDFFPYGGIIRPVLIEFTDHARILDIWVDTSESEPEKKLGKVKVKIEVSEEAVGQEMTIKLGEEEKKIRTSNRFVEGEFILENARFWSLEDPYLYPLKVELEKDEYTLDIGIRTISWDEKRLYLNGKPVFLKGFGKHEEFPVLGQGTFYPLMIKDFNLLKWINANSFRTSHYPYSEEWLDLADRLGILVIDEAPHVGITRYHYNPETQKIAEDNIRRMIDRHKNHPSVIMWSVANEPESNHPDAEGFFKALYETANEMDRTRPVVMVSMMDAPDERTRDVALKYFDIVCVNRYYGWYIYQGRIEEGLQALEKDIEELYARHRKPIFVTEFGADAIAGIHYDPPQMFSEEYQAELVEKTIRLLLKKDYIIGTHVWAFADFKTPQNVRRPILNHKGVFTRDRQPKLVAHVLRRLWSEV	not soluble
MGSDKIHHHHHHMVTEIELKYSLLDSNEQTKPEKIKTTISQLLSEHDVTFVHQEKQLSNHYFDTADLTLRKNRIALRTRGTKCFDETKRFEQTIKTSGTIIAGLHQRPEYNVDIGDAKPIVSLFPDIIFQPNIDINLLQQQIVELFSTHFTRHTWLVSFEDAQIEIAFDCGEVACQNYVKKPRIYEIELEFVSGDSQALLGLTKLLFSQLALRPGQLTKAARGYALYHESLTLASHVENKPPNNSAIVEQIELSMINLPKKIPLHNALTHGIEFSLNQLQLCVDSYVEVPSFNMLSKVSEQLILLRQGFWLFDELLSPDEKALRTELSYFIRTIHWVENARYIQLLINKQSSYQKENLINQELITKLQLRQSRYPRELQVLELLHSERFNNLQVDLLSLLLKRNSDETLKIDNSSSLVEFATKHLTNSTKALSDELVKLQKPQDSTSIELYLTAHSLLIRALLTTSWFSCLFAEPESDIVKRFNMPLLDIKQGIIELQSLSLLLQQLKHLPKKENKLTQWLTNKSENLITALDQSRAKALTMKPYWP	not soluble
MGSDKIHHHHHHMWIGFDYGSANCAVGIMHEGKISQIPLSANSQYLPSTLYALDRELIAQAVYQGISQDKKSEYAKLRSSQLSRAIQVRHELDLSMDEQTVFVGQAAIDAYLEMPEEGFYVRSPKSFLGANGLREEQVALFEDIVTLMMLHVKGITDNYLADNGLPAATHAVIGRPVNFQSIGGEKSNQQAEAILSLAAKRAGFTQVAFLFEPVAAGMDFEASLEQDSTVLVVDVGGGTTDCSVVRMGPSFAANKQREQDCLGHSGQRVGGNDLDIALAMKGFMPSLGLDSLLKSGKPMPSAPFWQAVAVNDVSAQRDFASLNARKLLDTLVKDAKEPELVKRLKKVQQDQLGYKLVRQAEGAKVTLSDAMQTECDLGFIASDLSVELTQAQFSHFIIEPLAKIEALIQAAVAKADVNPDLVYVTGGTARSPAIYAKIASVYPEAKIVVGDHFGSVTAGLTRWTQKVF	not soluble
MGSDKIHHHHHHMWLKAKKDAEAGAVSFSNQNGKFAEVSSVNTEEFSFRIYQVFGGGHVELSYDTVTTAVSVIYWFTASDVLETGITVVHTKPDNAAPELPGSYHFRPPFGWMNDPNGFGRFEGRPHLFYQHYSHGLRWNTMHWGHAVSSDYLRWRHLPIFLFPSEDLTTRPDKRGGAYSGSTIPLVEGSGIRVFFTEQVQDRIPEQQIQLTATSSDLIMAGQADVILAHRPDGQGLTPDFRDPYVFRGPDGLWKMLLGSQSDGGGVILLYETLDPTAASGWTYVGKLWVETRYKTTAIECPCLLPLDGPANARSTRWVLIYGLMHSEDPETGRKNLTMADVGWFDGKVFTKEFGQELDFGTDNYAFQAFLDGDSIIGIGWLANWADANPEIDFPTSMTLPRRIHYANGELLTPPIGAAESLRSHILDRTRLAAGERVTFINGAVEILIELASSDAAFELALDHPTVTLGLVSDETGLWIRHEDGRDGASPHYIAKGARASRIRIFLDYGSIEVFANRGRYVGTKRIEGFEPVRSALLRADPGAVVHATSWALKP	not soluble
MGSDKIHHHHHHMWRNAQVNWDDYRCFLTLAKTGSFSRAARLLHVDHTTVGRRVAALEVDLGIKLVERLAREVRLTAEGHDLATLGLPVEEAMASVERAAAGGGAALAGPVHISAPPGLASLLLAPKLVSLHRQYPEIKITMSSDKDFANLNRREADIALRLSRPLSNGLVARKLRDIPFFFFASHTYDIAEDDWEFITYLQADDILPQQSWLMQHIGSRTIALRCSDAASQVQAAASGLGVALLPDYLGYNDTRLRKCPSRLTPPRRELWMVVHDDIRHAPRVRVVLDFLIGILTATQDLELPHASEA	not soluble
MGSDKIHHHHHHMWVRVPPPAPFSIFLSPGDDIVKRRKSTRTSSFGVKGRESHDSSPFYSRAIYSNFSLPKPSEEDLIENPLPENLLDKVIEGDAREVLKKIPDCSIHLMVTSPPYNVGKEYDEDMTLDEYLEFIEEIMKEVYRVLVWGGRACFNVANLGRKPYIPLHAYLIHLFEKIGFLIRGEIIWDKGEAVSGSSTAWGSWMSPVNPVLRDQHEYIIVMSKGDLKRRKPSDREAKSTITREEFLEFTRSVWKFPPESAKRVGHPAPFPEELPYRCIQLYTFKGDVVLDPFAGVGTTCVAAVKTGRHFVGIEINPEYVKKAEERVKDILSKPTLFEDHC	not soluble
MGSDKIHHHHHHMYEDYYRFSAKPFQLNPDPRFFYGSKGHKRAMAYLDYGLSLGEGFIVITGEVGAGKTTLVRNLFRQLEAHNLVAAQLVSTQLDAEDTLRSVAASFGLEHEGLTKSALLKNLESFLAAAARQGKRALLVVDEAQNLTPRAVEELRMLSNFQNDERSLIQTFLLGQPEFRGILQSPDMQQLRQRVVASYHLGPLDADETRGYIEHRLRTVGWQGMPGFDDDAFAALHRFSGGIPRRLNTTCDRLLLFGFLEEKRHFGEAEVDEVIADLRSEVAHQDFDRGAKPDARAADAFYAEDGGRLAQRIEQLERSVNRILPIVRKILYTVSEREAANDDTPQGPHDPAR	not soluble
MGSDKIHHHHHHMYETFMKRAIELAKKGLGRVNPNPPVGAVVVKDGRIIAEGFHPYFGGPHAERMAIESARKKGEDLRGATLIVTLEPCDHHGKTPPCTDLIIESGIKTVVIGTRDPNPVSGNGVEKFRNHGIEVIEGVLEEEVKKLCEFFITYVTKKRPFVALKYASTLDGKIADHRGDSKWITDKLRFKVHEMRNIYSAVLVGAGTVLKDNPQLTCRLKEGRNPVRVILDRKGVLSGKVFRVFEENARVIVFTESEEAEYPPHVEKALSDCSVESILRNLYERDIDSVLVEGGSKVFSEFLDHADVVFGFYSTKIFGKGLDVFSGYLSDVSVPPKFKVVNVEFSDSEFLVEMRPCSRE	soluble
MGSDKIHHHHHHMYKLNLDIQAFLANDWQQAPKVFKGAFPDFEDPIAADELAGLACEEEVSSRVVVTKGNDWEVISGPFEDYDRFGETHWQLLVQAVNHWYPESQPLVEAFRFLPDWRFDDLMVSFATPQGGVGPHIDNYDVFIIQGEGQRRWTVGPKGNYQRRGGVTTSPLIEDFEPIIDVVLEKGDVLYIPPGFPHQGETLTLALSYSMGYRAPSQQELAGQIADQLMDEDKGHKRFIAVDGAASHGTVSLAEQQGIMQLIRDLCNDTDNVVKVLGKLLSQNRFDLDIQEDESIDADALVEALNEGAVLMRIGGLKVLKMEGDSQARLFVAGESVIIEGASEEELIEVSNSVNVNAELAQLPHWQGFFVQMLQKGYFYLGED	not soluble
MGSDKIHHHHHHMYKWHNVFQPIFQIDQNMNHKVDHYEMLLRDENDQFPNHDFFRIISTEEDNQKWIQIEEKSLKNLFSLHPNIHVNLNVEPIQFAYPSVWEFLRRIYDKYGQKVIIEITERQLQAGNIGNRQFDCAFQRINDIGFKIALDDVDSGSNSFSFVNHHVNQISVIKLSLLIFDNVSSGTTISFIDSWAAFAKEKHLDLVIEAVRSKEIAKRFAGNKHIFQQGYYWEKALKLEDIY	not soluble
